Experimental data reported in patent US6451314B1, “MHC conjugates useful in ameliorating autoimmunity” (Anergen, Inc., priority 1988, dated 2002).

Key:
Lewis rats = assay: Therapeutic treatment of clinical stage 1 EAMG
RT1.D = assay: Peptide loading of rat MHC II (nitrocellulose filter binding and TLC); conditions: 50-fold molar excess peptide, 37° C., 24 hours
Experimental: (§1) Rat MHC II Purification and Peptide Loading. Rat class II RT1.B and RT1.D molecules were detergent solubilized (0.5% NP-40, 10 mM Tris HCl pH 8.3, 1 mM PMSF, 0.02% NaN3) from homogenized spleens and purified by affinity chromatography with monoclonal antibodies OX 6 and […]. The RT1.B/D mixture was incubated at 37° C. for 24 hours with a 50-fold molar excess of peptide AChRα 100-116, followed by 24 hours of dialysis at 4° C. against 0.1% OG/PBS to remove unbound peptide. […] This complex is stable at 4° C. for at least 8 weeks.

RT1.B = assay: as above; conditions: 50-fold molar excess peptide, 37° C., 24 hours
Experimental: as §1

[1] = Serum half-life of 125I-labeled I-A^s, effect of liposomes; type: in vivo, mice; conditions: Sets 1 and 2: 10 μg, injected without blank liposomes
Experimental: (§2) The protocol for these studies was generally as follows: Affinity-purified, soluble MHC molecules were labeled with ^125I by the iodobeads method (Pierce Chemical Co., Rockford, Ill. Excess ^125I was removed by dialysis against PBS containing 0.1% neutral detergent. The quality of the labeled protein was assessed by thin layer chromatography, cellulose acetate electrophoresis, and polyacrylamide gel electrophoresis. The MHC glycoprotein was administered by tail vein injection to mice subjected to Lugol's solution in the drinking water at least one day before injection. Blood samples were obtained at different time points. The animals were then sacrificed to obtain organs of interest. Radioactivity in the blood and organ samples was detected in a gamma well counter according to standard techniques.
I-A^s was labeled as described above. The labeled I-A^s molecules were captured inside liposomes by standard procedures (see, e.g., Remingtion's, supra). Ten mice were injected with 10 μg I-A^s, as described above, and divided into four sets: (1) I-A^s alone; (2) liposomal I-A^s; (3) liposomal I-A^s coinjected with blank liposomes; and (4) blank liposomes plus, 10 minutes later, liposomal I-A^s coinjected with blank liposomes. Blood samples were obtained at different time points after injection, and the percent of injected dose of I-A^s retained in the blood was calculated.

[2] = Serum half-life of 125I-labeled I-A^k, effect of periodate/cyanoborohydride treatment; type: in vivo, mice; conditions: 10 μg i.v.
Experimental: as §2
I-A^k in a phosphate buffer containing 3 mM taurodeoxycholate at pH 7.5 was labeled as described above. The labeled molecules were subjected to periodate oxidation and cyanoborohydride reduction for 5 or 21 hours at 4° C., using 20 mM sodium periodate and 40 mM cyanoborohydride (final concentrations) in 0.1 M acetate buffer at pH 5.5. The reaction was quenched by addition of ethylene glycol (final concentration 0.7%). […] Blood samples were obtained at different time points and the percent of injected dose of I-A^k retained in the blood was calculated.

[3] = system: T cell clones AJ1.2 and 4R3.4; assay: Proliferation (MTT uptake) of T cell clones with APC and MBP(1-13) after preincubation; type: cell-based, mouse; conditions: preincubation five hours at 37° C., 72-hour incubation
Experimental: The effects of detergent-solubilized Class II molecules were examined by culturing 1×10^5 AJ1.2 or 4R3.4 cells with 50-100 ul of purified I-A^k alone, purified I-A^k plus MBP(1-13) and medium alone for five hours at 37° C. in 5% CO2. Following this incubation the cells were diluted to 900 ul and tested for their ability to respond to antigen-presenting cells (APC) and antigen [MBP(1-13)] in a proliferation assay. Uptake of 3-(4,5-dimethyl-thiazol-2-7′)-2,5 diphenyltetrazolium bromide (MTT) was used as an indication of cell proliferation.
Data are presented as % suppression of proliferation of cells incubated with Class I+Ag compared to cells cultured with medium alone and were calculated by using the formula:
Therefore, 4R3.4 or AJ1.2 cells were preincubated with 50-100 ul of I-A^k+MBP(1-13), I-A^k, or medium alone for five hours at 37° C. The cells were then diluted to an appropriate concentration and added to APC. Antigen [MBP(1-13)] was added to a final concentration ranging from 13.3 um to 53.2 um.
APC used in the study were prepared from spleens of female A/J mice. […] Following this incubation, spleen cells were washed five times with RPMI containing antibiotics, counted, and used as APC's.
Following a 72-hour incubation period of the cells with APC and MBP(1-13), the extent of proliferation was quantitated using MTT uptake. […]

[4] = Serum half-life of 125I-labeled I-A^k, effect of asialoletuin; type: in vivo, mice
Experimental: as §2
IA^k was labeled and administered to mice as described above. The mice were divided into three sets: (1) I-A^k (10 μg i.v.); (2) I-A^k (10 μg i.v.) plus asialoletuin (10 mg i.v.) plus asialoletuin (100 mg i.p.); and (3) I-A^k (10 μg i.v.) plus asialoletuin (10 mg i.p.). Blood was drawn at different time points and the percent of injected dose retained in the blood was calculated.

Molecule	clinical stage of representative rat (Lewis rats; 61 days post EAMG induction)	clinical stage of representative rat (Lewis rats; 123 days post EAMG induction)	survival frequency (Lewis rats; 140 days post-induction, five weekly i.v. injections from clinical stage 1)	fraction of RT1.D that bound peptide (RT1.D)	fraction of RT1.B that bound peptide (RT1.B)	serum mean half-life [1]	serum half-life [2]	proliferation in presence of APC and MBP(1-13) [3]	mean serum half-life ([4]; Set 1: I-A^k 10 μg i.v.)	mean serum half-life ([4]; Set 2: I-A^k 10 μg i.v. plus asialoletuin 10 mg i.v. plus asialoletuin 100 mg i.p.)	mean serum half-life ([4]; Set 3: I-A^k 10 μg i.v. plus asialoletuin 10 mg i.p.)
YAIVHMTKLLLDYPGKI [AChRα 100-116, Torpedo AChRα subunit peptide 100-116]	2.5	Dead (day 66)	0%	90-100%	70-80%						
I-A^k: mouse Class II MHC glycoprotein I-A^k purified by affinity chromatography on 10-2.16 antibody (protein) MHC II alpha: EDDIEADHVGSYGITVYQSPGDIGQYTFEFDGDELFYVDLDKKETVWMLPEFAQLRRFEPQGGLQNIATGKHNLEILTKRSNSTPATNEAPQATVFPKSPVLLGQPNTLICFVDNIFPPVINITWLRNSKSVTDGVYETSFFVNRDYSFHKLSYLTFIPSDDDIYDCKVEHWGLEEPVLKHWEPEIPAPMSELTE MHC II beta: GNSERHFVHQFQPFCYFTNGTQRIRLVIRYIYNREEYVRFDSDVGEYRAVTELGRPDAEYWNKQYLERTRAELDTVCRHNYEKTETPTSLRRLEQPSVVISLSRTEALNHHNTLVCSVTDFYPAKIKVRWFRNGQEETVGVSSTQLIRNGDWTFQVLVMLEMTPRRGEVYTCHVEHPSLKSPITVEWRAQSESARSK						2 min	4 min	proliferated to the same extent as cells cultured in medium	3 min	40 min	35 min
